The target of this experiment is truncated cycD1 (16-267) (human, UniProt P24385 16-267). Briefly: crystal structure.
truncated cycD1 (16-267), sequence (P24385 16-267): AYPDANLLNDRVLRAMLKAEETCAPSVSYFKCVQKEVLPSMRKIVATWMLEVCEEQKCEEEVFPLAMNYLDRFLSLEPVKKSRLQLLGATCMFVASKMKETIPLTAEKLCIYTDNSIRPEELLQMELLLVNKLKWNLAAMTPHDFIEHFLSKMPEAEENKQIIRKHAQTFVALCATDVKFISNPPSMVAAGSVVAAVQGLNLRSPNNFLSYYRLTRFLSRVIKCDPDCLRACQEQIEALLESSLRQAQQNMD

B1: p27(3E) (p27^KID 25-93 with glutamate phosphomimetics at Y74, Y88 and Y89) (domain or fragment, human, UniProt P46527 25-93, looked up)
chain: KPSACRNLFGPVDHEELTRDLEKHCRDMEEASQRKWNFDFQNHKPLEGKEEWQEVEKGSLPEFEERPPR
As to B1, the binding result is listed as “binds”.

(Values after article PMC7592119 (Science (New York, N.Y.), 2019).)
